From PMC8811538, “Pilot scale production, extraction and purification of a thermostable phycocyanin from Synechocystis sp. PCC 6803” (Bioresource Technology, 2022)
Several values for one entry are separate records, joined by “and”; a condition that tells them apart may be missing. Equal values may be shown once. One block for each binder: values may come before it.

Experiments:
[1] = target: the molecule itself; assay: SEC; purified, freeze-dried Te-PC resuspended in 15 mM citric acid-trisodium citrate pH 6.0; 250 µL (425 µg Te-PC) on Superdex-200 10/300 GL in 100 mM trisodium citrate, pH 6.0, 8 °C, 0.5 mL/min; absorption at 280 and 615 nm; sizes from molecular weight standards (apparent); peaks about 5% hexamer, 80% trimer, 15% (ɑβ) monomer
[2] = target: T1, phycocyanin β-subunit (CpcB) of Te-PC (Thermosynechococcus elongatus BP-1, UniProt P50033 1-172, phycobilin chromophore (chromophorylated; sites not given)); assay: as above; settings: both partners purified
T1 construct: phycocyanin beta-subunit CpcB of Thermosynechococcus elongatus BP-1, expressed from the cpcBACD (TeBACD) operon; source: Synechocystis sp
T1 sequence (looked up): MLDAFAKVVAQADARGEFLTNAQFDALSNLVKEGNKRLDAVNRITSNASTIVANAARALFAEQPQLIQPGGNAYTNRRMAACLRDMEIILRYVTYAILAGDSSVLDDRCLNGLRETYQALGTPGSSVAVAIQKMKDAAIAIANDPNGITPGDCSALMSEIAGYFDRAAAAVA

B1: thermostable phycocyanin from Thermosynechococcus elongatus BP-1, (ɑβ) monomer (complex)
chain 1: not shown
chain 2: T1 sequence (looked up)
modifications: phycobilin chromophore (chromophorylated; sites not given) | phycobilin chromophore (chromophorylated; sites not given)
notes: phycocyanin alpha-subunit CpcA of Thermosynechococcus elongatus BP-1, expressed from the cpcBACD (TeBACD) operon; phycocyanin beta-subunit CpcB of Thermosynechococcus elongatus BP-1, expressed from the cpcBACD (TeBACD) operon; The construct is described in the supplementary materials and in Puzorjov et al., 2021; also called Te-PC; PC; source: Synechocystis sp
stoichiometry N [1]: 6 and 3

binding result [2]: binds
B2: phycocyanin ⍺-subunit (CpcA) of Te-PC (natural protein)
chain: not shown
modifications: phycobilin chromophore (chromophorylated; sites not given)
notes: phycocyanin alpha-subunit CpcA of Thermosynechococcus elongatus BP-1, expressed from the cpcBACD (TeBACD) operon; source: Synechocystis sp
